Laboratory results reported in patent US12077763B2, “RNA-based control of powdery mildew” (Greenlight Biosciences, Inc., priority 2021, dated 2024).

Tested on: E. necator
Test: Leaf disc assay, dry inoculum (settling tower), decrease in disease severity / hyphal growth (Example 2)
Details: decrease in disease severity (hyphal growth) relative to untreated control, value ± SE; for % decrease =/− SE TP1: time point 1 (untreated control hyphal growth ≥50%); for % decrease =/− SE TP2: time point 2

Molecule | % decrease =/− SE TP1 [%] | % decrease =/− SE TP2 [%]
GS3446 (nucleic acid) sense: ACCCGCAGGUACUCUUAUGCUUGGAGCUGAAGGUAUUAAAGAUGCCAUAACUGGCUUCGAAGAUGCUCGUAAAGUAGAUUUAAAGAAUGAAAGAUUGCCUCCAAGUCUUGAGGAAAUUACACGAACAAGUGAAGAGGAUAGAGCUCUGGCAUUAGAGAGGGCUAAGGAAAGUGCGGAUAAUGAUCGAGGGCUUCAGAUUUUAUCUAGAAGACUCAGUUUAGUUGGCACUCAACCAAAUAGACCGCAACCGAGUAAAAUUCUGAACUCUGUUCUAGCCCUCGAUAAAGAUGUUUCUGAGAAAUAAGAGGUCGAUCAGAGUCACCUCCUGUUACAAGCUCAUUGGUUGGUCUGCAGGUACAGAAUUACUAAUCAUACCACGA antisense: UCGUGGUAUGAUUAGUAAUUCUGUACCUGCAGACCAACCAAUGAGCUUGUAACAGGAGGUGACUCUGAUCGACCUCUUAUUUCUCAGAAACAUCUUUAUCGAGGGCUAGAACAGAGUUCAGAAUUUUACUCGGUUGCGGUCUAUUUGGUUGAGUGCCAACUAAACUGAGUCUUCUAGAUAAAAUCUGAAGCCCUCGAUCAUUAUCCGCACUUUCCUUAGCCCUCUCUAAUGCCAGAGCUCUAUCCUCUUCACUUGUUCGUGUAAUUUCCUCAAGACUUGGAGGCAAUCUUUCAUUCUUUAAAUCUACUUUACGAGCAUCUUCGAAGCCAGUUAUGGCAUCUUUAAUACCUUCAGCUCCAAGCAUAAGAGUACCUGCGGGU | 36 ± 3 | –
GS3447 (nucleic acid) sense: CAACAGCUUGAAUUGCACGGAAUUAUCACUAUCAUCCCGACUAAGCCUCUCAAAAAGCAAAAUUUAUUUGCUAGCUCGGAAAAGAUAACAGCUAGCUACGCAAAAGCUAUUCAAGAUGGUUGUUGGCAUUCAUUUUCGCCAAACUCUCAGAAAAGCUGCAACAAAUCCCCGUCAUAUAGAAAACAACUCUAAUCAGCCAGAAACUAUGUUGUCCGGAGAAAAUAUUGGGUUACUUACGGGGCGAACAUCAAACGCCCGCAAAAGUGCGUGGCGACAAAUUUACGAUGUACUCGGAAGCAAACAUUAUUCAGCCGGAAAAGAUAGUGAUAGUAAAAUUGUACGAGCUAUAGCGCCAACUAUUCAGAUUACAAAAAUUACGUUAUACAGUAAUUAUGUC antisense: GACAUAAUUACUGUAUAACGUAAUUUUUGUAAUCUGAAUAGUUGGCGCUAUAGCUCGUACAAUUUUACUAUCACUAUCUUUUCCGGCUGAAUAAUGUUUGCUUCCGAGUACAUCGUAAAUUUGUCGCCACGCACUUUUGCGGGCGUUUGAUGUUCGCCCCGUAAGUAACCCAAUAUUUUCUCCGGACAACAUAGUUUCUGGCUGAUUAGAGUUGUUUUCUAUAUGACGGGGAUUUGUUGCAGCUUUUCUGAGAGUUUGGCGAAAAUGAAUGCCAACAACCAUCUUGAAUAGCUUUUGCGUAGCUAGCUGUUAUCUUUUCCGAGCUAGCAAAUAAAUUUUGCUUUUUGAGAGGCUUAGUCGGGAUGAUAGUGAUAAUUCCGUGCAAUUCAAGCUGUUG | 35 ± 3 | –
GS3448 (nucleic acid) sense: GAAGAUACAAAUUUAUGCGCUAUUCAUGCUAAACGUGUUACUAUAAUGCAAAAAGACAUUCAGCUUGCAAGGCGAAUCAGAGGGGUUUGGGGUGGUUUAGGCUAGCUUUUUUAUUCUAAAUAUACCAGUGCCCGAAUUUGAUCUCCCUAAGCCACACCAUCGAGUUGAAAUGAUGAGAGGAAGAUGACGAGAAUAAAAUUAUUGUGAAUAUUCGUUAUAUGGAUAAGCGUAGAGGGGAUCUAAUACUUGUGAAUUGGUAAUCUUGAGUUAUCACUUUUUCUGGCGCAUCCAGCGACCCUAAGCAUAUGGACACUAGUGAUUGCGUCUUAGGGUUAUAGUAGCCAAGAGGAAUUUGAAGCACACAUAUUAGCACAGCAUAAUAAUAAAUAA antisense: UUAUUUAUUAUUAUGCUGUGCUAAUAUGUGUGCUUCAAAUUCCUCUUGGCUACUAUAACCCUAAGACGCAAUCACUAGUGUCCAUAUGCUUAGGGUCGCUGGAUGCGCCAGAAAAAGUGAUAACUCAAGAUUACCAAUUCACAAGUAUUAGAUCCCCUCUACGCUUAUCCAUAUAACGAAUAUUCACAAUAAUUUUAUUCUCGUCAUCUUCCUCUCAUCAUUUCAACUCGAUGGUGUGGCUUAGGGAGAUCAAAUUCGGGCACUGGUAUAUUUAGAAUAAAAAAGCUAGCCUAAACCACCCCAAACCCCUCUGAUUCGCCUUGCAAGCUGAAUGUCUUUUUGCAUUAUAGUAACACGUUUAGCAUGAAUAGCGCAUAAAUUUGUAUCUUC | 19 ± 3 | –
GS3454 (nucleic acid) sense: GCUCUUCUCAAUGGAUCCCAAGAUGAUCUAAAUAGAAUCGCAGAACACUUUAAGUUGACAAAGUUGAAAGAGCUCUAUGAAAAACAAUGUCAAGUUUUAAAAAGAUUUGAUAGACCCAAUCCUUCUGUUCCAAUAGCCAUAGCACAUUUAUAUCCUCCAGGCCCUAUAAAUCCACAUUACUCAGCAGCUAUGGCACGAGAAGCUGAGAAAAAAAAUUCAAACCCUCUUAAAAACACUGCAACACAAACUAGUUCUAAGGAGGUUGGCUUAAGUACCAUUAGUAAUAAAAAUUCUCUUAUAAAUUCGAGGCGCUCAAAAGGACAAGAUAUGCCAACUCAGGCUAGCAGUUUGGCAGAAAAAUUUAGUCAAAGUAUGAUGGAUCAGGAGCUUGAUGAUGA antisense: UCAUCAUCAAGCUCCUGAUCCAUCAUACUUUGACUAAAUUUUUCUGCCAAACUGCUAGCCUGAGUUGGCAUAUCUUGUCCUUUUGAGCGCCUCGAAUUUAUAAGAGAAUUUUUAUUACUAAUGGUACUUAAGCCAACCUCCUUAGAACUAGUUUGUGUUGCAGUGUUUUUAAGAGGGUUUGAAUUUUUUUUCUCAGCUUCUCGUGCCAUAGCUGCUGAGUAAUGUGGAUUUAUAGGGCCUGGAGGAUAUAAAUGUGCUAUGGCUAUUGGAACAGAAGGAUUGGGUCUAUCAAAUCUUUUUAAAACUUGACAUUGUUUUUCAUAGAGCUCUUUCAACUUUGUCAACUUAAAGUGUUCUGCGAUUCUAUUUAGAUCAUCUUGGGAUCCAUUGAGAAGAGC | 4 ± 4 | 0 ± 9
GS1800: dsRNA trigger SEQ ID NO 137; gene target Protein BOB1 (nucleic acid) DNA: ATCAGTCTGACTGCTATACTCACTACCAGAGTCACTGATTACCTGTCTGTCTCTATCGACAATTCCATGAGGTGATTTTAAATGAGTGATATGTTCGTCAATGACACTTAGAGTTTCATTCATTACAGGGCTATCTTGACGATGATTCTTAATATTAACAGACGAGATACTTTTTGATTGAATCGTTGTTTCAGGACTAGTAATCGTTAAGTTTGACGGAGCCTTGATACCCCGGGGCCCAAGAGTTGGTTGTATTTGAGGAGTATCTAACATTTTGAGAGGTTCTGATGGCAAGGAGACCGTATTTTCACCAGAAAAAGGAGTTTGTGGAGAAACTGTGTTGCTAGTTTTCCTTATTTTGGAATGGGAATTTTGAATGGACGATGATGCTGGCGAGCATATTAAAGATCCTCGGGGAGCTATACGTGTGTATACTTCTGGGAAGAGGCCACTCTTTCCATTTAGCAGATGACGGCCTAAAAACCATCCGTCCCCAAAATCATCATCACGTTCTATCAACTCAACGCGATCTCCTTTGGACAAGCTCAACTCATCTGAGCTACGAGCTGAGAAATCATGAACTACAAGCAAAATATGA | 22 ± 6 | 25 ± 8
